B1: pRb (retinoblastoma gene product), endogenous in rat liver epithelial cell extracts (other)
chain: PPKAPRRTAAAEPPPPPPPPPEDDPAQDSDPEELPLIRLEFEKIEEPEFIALCQKLKVPDHVRERAWLTWEKVSSVDGILEGYIQKKKELWGICIFIAAVDLDEMPFTFTELQKSIETSVYKFFDLLKEIDTSTKVDNAVSRLLKKYNVLCALYSKLERTCGLIYLTQPSSGLSTEINSMLVLKVSWITFLLAKGEVVQMEDDLVISFQLMLCVLDYFIKLSPPALLREPYKTAATPINGSPRTPRRGQNRSARIAKQLESDTRTIEVLCKEHECNVDEVKNVYFKNFIPFISSLGIVSSNGLPELESLSKRYEEVYLKSKDLDARLFLDHDKTLQTDTIDSFETERTPRKSNPDEEANMVTPHTPVRTVMNTIQQLMVILNSASDQPSENLISYFSNCTVNPKENILKRVKDVGHIFKEKFASAVGQGCIDIGAQRYKLGVRLYYRVMESMLKSEEERLSIQNFSKLLNDNIFHMSLLACALEVVMATYSRSMLQNLDSGTDLSFPWILNVLNLKAFDFYKVIESFIKVEANLTREMIKHLERCEHRIMESLAWLSDSPLFDLIKQSKDGEGPDHLESACSLSLPLQSNHTAADMYLSPIRSPKKRTSTTRVNSAANTETQAASAFHTQKPLKSTSLSLFYKKVYRLAYLRLNTLCARLLSDHPELEHIIWTLFQHTLENEYELMKDRHLDQIMMCSMYGICKVKNIDLKFKIIVTAYKDLPHAAQETFKRVLIREEEFDSIIVFYNSVFMQRLKTNILQYASTRPPTLSPIPHIPRSPYKFSSSPLRIPGGNIYISPLKSPYKISEGLPTPTKMTPRSRILVSIGESFGTSEKFQKINQMVCNSDRVLKRSAEGGNPPKPLKKLRFDIEGSDEADGSKHLPAESKFQQKLAEMTSTRTRMQKQKLNDSMEISNKEEK
B2: BOG-MBP chimeric protein (complete rBOG fused to the carboxy-terminal of maltose binding protein, pMAL-P2-BOG) (other, not shown: large carriers)
chain: MVSPTKAVIVPGNGGGDVATHGWYGWVRKGLEQIPGFQCLAKNMPDPITARESIWLPFMETELHCDEKTIIIGHSSGAIAAMRYAETHQVYALILVSAYTSDLGDENERASGYFSRPWQWEKIKANCPHIIQFGSTDDPFLPWKEQQEVADSWTPNCTNSLTVVTFRTQSSMN
notes: Any vector-encoded linker between MBP and BOG is not described; also called fusion protein BOG-MBP; chimeric BOG-MBP

The target in assay [1] is maltose binding protein without BOG (UniProt P0AEX9 27-392 = MBP). Nature of the assay: precipitation from whole cell lysates with amylose-purified protein.
Assay [2] has as its target B1. Nature of the assay: precipitation of pRb from whole cell lysates by amylose-purified BOG-MBP.

As for B1, the binding result in assay [1] is given as “no binding”.

Take B2: in assay [2], the binding result is given as “binds”.

These data come from US20040139485A1 (US Dept. of Health and Human Services, published 2004).
